Article PMC11584650, “An inhibitory segment within G-patch activators tunes Prp43-ATPase activity during ribosome assembly”

Experiments:
Prp43;Pxr1M = Prp43;Pxr1M (Saccharomyces cerevisiae;Saccharomyces …, UniProt P53131;P53335 1-767;72-137, |); test: fluorescence polarization; 5 mM Mg2+, no nucleotide listed; affinity unaltered vs Prp43 alone; 50 mM HEPES pH 7.5, 50 mM KCl, 5 mM MgCl2, 0.05% Tween-20, 1 mM DTT; 5 nM Cy5-U12 RNA, protein 20 pM to 2.5 uM; temperature not stated; settings: protein: recombinant;recombinant; tags: His6 (HRV site; pET47b);GST (pGEX-6P-1; copies: 1;1; single strand
Prp43;Tma23M = Prp43;Tma23M (Saccharomyces cerevisiae;Saccharomyces …, UniProt P53131;Q03525 1-767;43-111, |); test: as above; settings: protein: recombinant;recombinant; tags: His6 (HRV site; pET47b);GST (pGEX-6P-1; copies: 1;1; single strand
Prp43 = Prp43 (Saccharomyces cerevisiae, UniProt P53131 1-767); test: fluorescence polarization; 5 mM Mg2+, no nucleotide listed; 50 mM HEPES pH 7.5, 50 mM KCl, 5 mM MgCl2, 0.05% Tween-20, 1 mM DTT; 5 nM Cy5-U12 RNA, protein 20 pM to 2.5 uM; temperature not stated; settings: protein: recombinant; tags: His6 (HRV site; pET47b); single strand

Measured: binding result

Prp43;Pxr1M, sequence (P53131 whole entry, chain 1 of 2): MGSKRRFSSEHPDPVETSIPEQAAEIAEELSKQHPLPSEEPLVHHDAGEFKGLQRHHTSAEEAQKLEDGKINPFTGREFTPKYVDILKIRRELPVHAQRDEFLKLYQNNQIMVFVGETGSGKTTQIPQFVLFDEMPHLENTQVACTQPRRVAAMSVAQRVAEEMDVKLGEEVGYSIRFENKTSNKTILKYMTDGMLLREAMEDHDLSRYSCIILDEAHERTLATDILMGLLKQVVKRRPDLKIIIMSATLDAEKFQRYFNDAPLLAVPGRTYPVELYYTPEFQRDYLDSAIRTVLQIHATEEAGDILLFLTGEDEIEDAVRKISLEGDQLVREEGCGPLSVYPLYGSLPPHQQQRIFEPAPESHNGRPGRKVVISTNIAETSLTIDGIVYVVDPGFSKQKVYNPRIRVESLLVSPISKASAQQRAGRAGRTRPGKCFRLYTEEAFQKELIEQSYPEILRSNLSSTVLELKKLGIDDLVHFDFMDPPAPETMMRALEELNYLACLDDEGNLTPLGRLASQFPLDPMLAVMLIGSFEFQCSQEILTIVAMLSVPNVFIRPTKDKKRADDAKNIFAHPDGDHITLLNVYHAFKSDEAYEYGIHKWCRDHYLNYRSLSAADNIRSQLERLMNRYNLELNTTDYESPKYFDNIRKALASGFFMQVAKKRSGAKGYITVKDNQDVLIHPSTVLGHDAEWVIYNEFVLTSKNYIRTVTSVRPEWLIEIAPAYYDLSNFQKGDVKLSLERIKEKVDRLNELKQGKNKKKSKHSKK
Prp43;Pxr1M, sequence (P53335 72-137, chain 2 of 2): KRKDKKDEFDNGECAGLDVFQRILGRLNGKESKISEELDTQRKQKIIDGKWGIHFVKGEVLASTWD
Prp43;Tma23M, sequence (P53131 whole entry, chain 1 of 2): as the sequence (P53131 whole entry, chain 1 of 2) above
Prp43;Tma23M, sequence (Q03525 43-111, chain 2 of 2): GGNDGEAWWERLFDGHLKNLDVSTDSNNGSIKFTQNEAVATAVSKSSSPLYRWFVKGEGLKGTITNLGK
Prp43, sequence (P53131 whole entry): as the sequence (P53131 whole entry, chain 1 of 2) above

B1: Cy5-U12 RNA (ssRNA)
RNA: UUUUUUUUUUUU
binds: all assays above
